Results taken from paper PMC7596997, “The selectivity filter of the mitochondrial protein import machinery” (BMC Biology, 2020).
No end group written: not given here.

Biological target: T1, cytosolic domain of yeast Tom70 (His-Tom70_(38–617)) (yeast (Saccharomyces cerevisiae), UniProt P07213 38-617)
T1 construct: Tom70, yeast, cytosolic domain, residues 38-617 of the protein of 617 amino acids; plasmid pET10N-Tom70(38–617); also called Tom70cd; isolated Tom70; source: E. coli BL21(DE3), purified (HisTrap, size exclusion; or Ni-NTA beads, batch method); not shown: His tag, N-terminal, kept
T1 sequence (looked up): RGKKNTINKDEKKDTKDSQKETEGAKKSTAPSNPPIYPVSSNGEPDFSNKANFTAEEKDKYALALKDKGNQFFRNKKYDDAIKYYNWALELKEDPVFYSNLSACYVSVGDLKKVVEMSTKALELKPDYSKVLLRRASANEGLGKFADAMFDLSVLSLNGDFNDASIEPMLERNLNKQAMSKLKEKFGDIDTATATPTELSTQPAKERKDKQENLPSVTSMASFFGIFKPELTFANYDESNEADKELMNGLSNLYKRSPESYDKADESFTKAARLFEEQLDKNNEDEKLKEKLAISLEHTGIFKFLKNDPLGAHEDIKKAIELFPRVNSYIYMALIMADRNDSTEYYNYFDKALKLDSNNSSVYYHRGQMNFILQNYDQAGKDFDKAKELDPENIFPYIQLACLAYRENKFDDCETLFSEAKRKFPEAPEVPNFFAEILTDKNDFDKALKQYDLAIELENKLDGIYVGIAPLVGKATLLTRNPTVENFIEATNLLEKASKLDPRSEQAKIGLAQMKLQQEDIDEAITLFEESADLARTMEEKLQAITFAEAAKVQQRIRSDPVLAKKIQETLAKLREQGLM
Assay: pull-down; purified His-Tom70cd (50 pmol per 100 μl) pre-bound to Ni-NTA beads, incubated 40 min at 30 °C with typically 7% (v/v) reticulocyte lysate containing the [35S]-labelled protein; 10 mM MOPS/KOH, 20 mM imidazole, 150 mM KCl, 1% BSA, pH 7.2; eluted with 1 M imidazole, SDS-PAGE, phosphorimager; in some samples the bead-bound Tom70cd was pretreated with NEM and washed before the lysate was added
Details: one partner purified

B1: ML3-DHFR (matrix loop of AAC module III, residues 238–277, fused to DHFR) (domain or fragment, Neurospora crassa, UniProt P02723 238-277, looked up)
chain: PLDTIRRRMMMTSGEAVKYKSSFDAASQIVAKEGVKSLFK
modifications: also: fused to DHFR, [35S]-methionine label
notes: ADP/ATP carrier (AAC), Neurospora crassa, residues 238-277; plasmid pYES2-AAC(238–277)-DHFR; also called the construct containing only the matrix loop; AAC(238–277)-DHFR; source: in vitro translated (TNT coupled reticulocyte lysate, with [35S]-methionine), in lysate
percent of the total radiolabelled protein bound: < 1%
